These results are taken from the Immune Epitope Database (IEDB).

Bounds are passed on as bounds.

Experiment [1] deals with HLA-A*01:01. Briefly: IEDB peptide-MHC binding, purified MHC/competitive/radioactivity; filed as Kd, often an IC50 or EC50 that approximates it; ≥ and ≤ were set here for values at or beyond the usual limits of such assays.
A further experiment has as its target HLA-A*23:01. The description is as above.
A further experiment deals with HLA-A*24:02. Described as above.
In another experiment the target is HLA-A*26:01. Described as above.
In a further experiment the target is HLA-A*29:02. The experiment is described as above.
The target in the next experiment is HLA-A*30:02. Described as above.
Another experiment deals with HLA-A*30:01. The description is as above.
The next experiment addresses HLA-A*02:01. Briefly: IEDB peptide-MHC binding, purified MHC/competitive/fluorescence; ≥ and ≤ were set here for values at or beyond the usual limits of such assays.
For a further experiment, the target named is HLA-A*03:01. Nature of the experiment: IEDB peptide-MHC binding, purified MHC/competitive/radioactivity; filed as Kd, often an IC50 or EC50 that approximates it; ≥ and ≤ were set here for values at or beyond the usual limits of such assays. Particulars: source organism: Mammarenavirus brazilense.
For the next experiment, the target named is HLA-A*31:01. Described as above. Particulars: source organism: Mammarenavirus brazilense.
The next experiment has as its target HLA-A*33:01. The description is as above. Particulars: source organism: Mammarenavirus brazilense.
The next experiment has as its target HLA-A*68:01. Described as above. Particulars: source organism: Mammarenavirus brazilense.
Experiment [2] addresses HLA-A*01:01. Briefly: IEDB peptide-MHC binding, purified MHC/direct/fluorescence; filed as Kd, often an IC50 or EC50 that approximates it; ≥ and ≤ were set here for values at or beyond the usual limits of such assays. The conditions noted are these: source organism: SARS-CoV1.
A further experiment concerns the target HLA-B*15:01. The description is as above. Particulars: source organism: SARS-CoV1.
The mark [3] stands for this setting: source organism: Mammarenavirus machupoense.
Where [4] appears, read: source organism: Vaccinia virus WR.
Where [5] appears, read: source organism: SARS coronavirus Tor2.
[6] abbreviates: source organism: Lassa virus Josiah.
The mark [7] stands for this setting: source organism: Dengue virus 3 Martinique/1243/1999.
Where [8] appears, read: source organism: Zaire ebolavirus.
The mark [9] stands for this setting: source organism: Mammarenavirus lassaense.
The mark [10] stands for this setting: source organism: Dengue virus 2 Jamaica/1409/1983.
Where [11] appears, read: source organism: Dengue virus 1 Brazil/97-11/1997.
[12] abbreviates: source organism: Mammarenavirus brazilense.
The mark [13] stands for this setting: source organism: Mammarenavirus guanaritoense.

Consider RAEVSLHEV, for which the Kd with HLA-A*01:01 [1] (setting [3]) is at least 66200 nM; with HLA-A*23:01 (setting [3]) it was at least 77700 nM; in the experiment with HLA-A*24:02 (setting [3]) it was at least 77500 nM; in the experiment with HLA-A*26:01 (setting [3]), at least 77900 nM; with HLA-A*29:02 (setting [3]), at least 78900 nM; with HLA-A*30:02 (setting [3]), at least 41200 nM.
As to AAMISLAKK, in the experiment with HLA-A*30:01 (setting [4]), the Kd was 151 nM.
Turning to ILSDDAVVCY, the Kd is 10.2 nM with HLA-A*01:01 [1] (setting [5]); at least 70000 nM in the experiment with HLA-A*23:01 (setting [5]); at least 70300 nM with HLA-A*24:02 (setting [5]); at least 38800 nM with HLA-A*26:01 (setting [5]); 320 nM with HLA-A*29:02 (setting [5]); 2100 nM with HLA-A*30:02 (setting [5]).
Consider YCNYSKYWY, for which the dissociation constant Kd is 15800 nM in the experiment with HLA-A*01:01 [1] (setting [6]); 13600 nM with HLA-A*23:01 (setting [6]); at least 44400 nM in the experiment with HLA-A*24:02 (setting [6]); at least 77900 nM with HLA-A*26:01 (setting [6]); 713 nM with HLA-A*29:02 (setting [6]); 668 nM with HLA-A*30:02 (setting [6]).
On to KSRVERVQV, for which the dissociation constant (Kd) with HLA-A*30:01 (setting [4]) came out at 11.2 nM.
Consider AWMVHRQWF, for which the Kd was determined as 340 nM with HLA-A*23:01 (setting [7]) and 42.9 nM with HLA-A*24:02 (setting [7]).
With KVNPEIDTT, the IC50 in the experiment with HLA-A*02:01 (setting [8]) is at least 120000 nM.
In the case of YIESKRGVY, the dissociation constant (Kd) is 145 nM with HLA-A*01:01 [1] (setting [5]); at least 77800 nM with HLA-A*23:01 (setting [5]); at least 77600 nM with HLA-A*24:02 (setting [5]); 735 nM with HLA-A*26:01 (setting [5]); 20.3 nM with HLA-A*29:02 (setting [5]); 47 nM in the experiment with HLA-A*30:02 (setting [5]).
With SLNITTLRAV, the Kd in the experiment with HLA-A*01:01 [1] (setting [9]) is at least 70400 nM; with HLA-A*23:01 (setting [9]), at least 70000 nM; with HLA-A*24:02 (setting [9]), at least 70300 nM; with HLA-A*26:01 (setting [9]) it was at least 69700 nM; in the experiment with HLA-A*29:02 (setting [9]), at least 71400 nM; with HLA-A*30:02 (setting [9]), 1700 nM.
Consider KTMGSCIQM, for which the Kd with HLA-A*30:01 (setting [4]) was 52.3 nM.
As for AGKRSLRPQP, in the experiment with HLA-A*30:01 (setting [10]), the Kd came to 1900 nM.
On to TWSIHAHHQW, for which the values for the Kd in the experiment with HLA-A*23:01 (setting [11]) and with HLA-A*24:02 (setting [11]) were 950 nM and 1080 nM, respectively.
Sequence GLDDQEKKI yielded an IC50 with HLA-A*02:01 (setting [8]) of 41200 nM.
Regarding KNKESLPML, the Kd with HLA-A*30:01 (setting [4]) was 18.3 nM.
As for FARLLNLSG, in the experiment with HLA-A*02:01 (setting [8]), the IC50 is 48200 nM.
The sequence GLNLEGNGV returned an IC50 with HLA-A*02:01 (setting [8]) of 10800 nM. This IC50 lies about 4.5-fold lower than the previous one.
MPLGVVTNS had an IC50 with HLA-A*02:01 (source organism: Sudan ebolavirus) of 13000 nM. That is a double-digit micromolar value.
Regarding GFELTSMKY, the Kd with HLA-A*01:01 [1] (setting [5]) is 1750 nM; with HLA-A*23:01 (setting [5]), at least 77800 nM; with HLA-A*24:02 (setting [5]), at least 77600 nM; in the experiment with HLA-A*26:01 (setting [5]), at least 81500 nM; with HLA-A*29:02 (setting [5]) it was 132 nM; in the experiment with HLA-A*30:02 (setting [5]) it was 1840 nM.
As to VDTRTPRPMP, the Kd in the experiment with HLA-A*30:01 (source organism: Dengue virus 3 Sri Lanka/1266/2000) worked out at 415 nM.
As to SSQRDTILK, the Kd is 270 nM with HLA-A*03:01; 46.5 nM with HLA-A*30:01 (setting [12]); 2570 nM with HLA-A*31:01; at least 24200 nM with HLA-A*33:01; 388 nM with HLA-A*68:01.
As for IDQIIHDFV, the IC50 with HLA-A*02:01 (setting [8]) was at least 195000 nM.
As for KMRDTLPAK, in the experiment with HLA-A*30:01 (setting [4]), the Kd amounted to 1.58 nM.
With HMVVKSALL, the Kd with HLA-A*01:01 [1] (setting [5]) came to 15100 nM; with HLA-A*23:01 (setting [5]), 13900 nM; in the experiment with HLA-A*24:02 (setting [5]), 12200 nM; with HLA-A*26:01 (setting [5]), 13100 nM; with HLA-A*29:02 (setting [5]) it was 511 nM; with HLA-A*30:02 (setting [5]), 954 nM.
As for INYCLDFLF, the Kd was 56.5 nM with HLA-A*23:01 (setting [13]), 1270 nM with HLA-A*24:02 (setting [13]) and 125 nM with HLA-A*29:02 (setting [13]).
For LYALITEQF, the Kd is 2.79 nM with HLA-A*23:01 (setting [12]), 16.8 nM with HLA-A*24:02 (setting [12]) and 731 nM with HLA-A*29:02 (setting [12]).
For RVRYLTRNY, the Kd with HLA-A*30:01 (setting [4]) worked out at 5.62 nM.
On to RFLAIPPTA, for which, in the experiment with HLA-A*30:01 (setting [11]), the Kd is 127 nM.
In the case of NQDLNGNWY, the Kd in the experiment with HLA-A*01:01 [2] is 282 nM; in the experiment with HLA-B*15:01, 15300 nM; with HLA-A*23:01 (setting [5]) it was at least 77800 nM; in the experiment with HLA-A*24:02 (setting [5]), at least 77600 nM; with HLA-A*26:01 (setting [5]) it was at least 35000 nM; with HLA-A*29:02 (setting [5]), 854 nM. For the same sequence, in the experiment with HLA-A*30:02 (setting [5]), the Kd was determined as 2710 nM.
In turn, LICGLRQLA showed an IC50 with HLA-A*02:01 (setting [8]) of 995 nM.
In the experiment with HLA-A*02:01 (setting [8]), LLNLSGVNN yielded a half-maximal inhibitory concentration (IC50) of at least 167000 nM.
RTRVGTKHA: the Kd in the experiment with HLA-A*30:01 (setting [10]) was 0.02 nM.
As to NYPLWSQSY, the Kd with HLA-A*24:02 (source organism: Homo sapiens) turned out to be 363 nM.
RVSTVSQLA: the dissociation constant (Kd) in the experiment with HLA-A*30:01 (source organism: Dengue virus 1 Nauru/West Pac/1974) is 355 nM.

A word on the Kd: it is the free concentration of one partner at which half of the binding sites on the other are occupied at equilibrium, for simple one-to-one binding. For orientation: IC50 means the midpoint of a concentration-inhibition curve. Read a high IC50 as weaker potency.
